For the assay, the target named is T1, SARS-CoV2的N蛋白 (SARS-CoV2, UniProt P0DTC9 1-419).
T1 construct: also called 新冠状病毒N蛋白; 2019-新型冠病毒N蛋白
The experiment in a line: ELISA, N protein coated at 2 ug/ml, VHH at 10.0 and 1.0 ug/ml, anti-Myc-HRP detection, OD450.

B1: N2-10单域抗体 (VHH)
VHH: QVQLVESGGGLVQTGGSLGVSCAASGRTFSIYAMGWFRQAPGKEREFVAAISKSGDGKYYADSVKGRFTISRDNAKNTVALQMNSLKFEDTAVYYCVASRTVVSGASPDEYDLWGQGTQVTVSS
notes: also called 单域抗体N2-10; N2-10-PSJF; not shown: c-myc and His6 tags from the pSJF2 vector
As to B1, the binding result was “binds”.

B2: N2-8单域抗体 (VHH)
VHH: QVQLVESGGGSVQAGGSLRLSCAASGRTFSIYAMGWFRQAPGKEREFVAAISKSGEGTYYADSVKGRFTISRDNAKNTVALQMNSLKSEDTAVYYCAASRVVVSGLSPSDYAYWGQGTQVTVSS
notes: also called 单域抗体N2-8; N2-8-pSJF2; not shown: c-myc and His6 tags from the pSJF2 vector
For the molecule B2, the binding result is “binds”.

The values are drawn from CN114539393A (BEIJING NEUABO XINESCAPE BIOTECHNOLOGY CO LTD, dated 2022).
